This is an account of results in patent US20230365681A1 (CELGENE, published 2023).

Numbering of substitutions follows the chain as printed.

Experiment [1] concerns the target T1, human CD47 extracellular domain (human, UniProt Q08722 19-139).
T1 construct: extracellular domain; also called human CD47 ECD; Hu CD47
The experiment can be described thus: method not given; human CD47, form not stated there.

For experiment [2], the target named is T2, human CD47 on cells (human, UniProt Q08722 19-323).
T2 construct: whole, on cells; also called cell surface CD47; CD47 on Raji, OCI-Ly3, Fadu cells, human RBCs, platelets and blood cells
T2 sequence (Q08722 19-323): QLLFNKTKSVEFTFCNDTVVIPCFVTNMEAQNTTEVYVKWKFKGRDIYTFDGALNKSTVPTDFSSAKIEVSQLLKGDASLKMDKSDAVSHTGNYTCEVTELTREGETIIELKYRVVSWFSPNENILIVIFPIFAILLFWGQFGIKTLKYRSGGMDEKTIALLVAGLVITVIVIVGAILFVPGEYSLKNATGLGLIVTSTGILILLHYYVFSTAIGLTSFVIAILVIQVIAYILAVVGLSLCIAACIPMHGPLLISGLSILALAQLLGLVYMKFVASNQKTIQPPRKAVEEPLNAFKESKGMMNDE
As to the kind of experiment: blocking of human SIRPα binding to OCI-Ly3 cells; competitor SIRPα; TPP-23, parental high-affinity anti-CD47 IgG1; OCI-Ly3 cells.

For experiment [3], the target named is T1, human CD47 extracellular domain. As to the kind of experiment: column HUMAN CD47 KD (µM); no assay named on the sheet, SPR with the CD47 ECD per Example 4.
In experiment [4] the target is T2, human CD47 on cells. As to the kind of experiment: cell-based or functional assay.

T1 sequence (Q08722 19-139 limits assumed): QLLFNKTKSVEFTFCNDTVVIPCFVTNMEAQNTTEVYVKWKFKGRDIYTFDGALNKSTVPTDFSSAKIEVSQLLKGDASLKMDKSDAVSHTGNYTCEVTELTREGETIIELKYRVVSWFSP

B1: CC-90002 (antibody, V domains shown)
VH: QMQLVQSGAEVKKTGSSVKVSCKASGFNIKDYYLHWVRQAPGQALEWMGWIDPDQGDTEYAQKFQDRVTITRDRSMSTAYMELSSLRSEDTAMYYCNAAYGSSSYPMDYWGQGTTVTVSS
VL: NIQMTQSPSAMSASVGDRVTITCKASQDIHRYLSWFQQKPGKVPKHLIYRANRLVSGVPSRFSGSGSGTEFTLTISSLQPEDFATYYCLQYDEFPYTFGGGTKVEIK
notes: also called anti-CD47 monoclonal antibody CC-90002
B1: the Kd in experiment [1] is 0.00054 µM.

B2: TPP-23 (408_437 Fab with IgG1) (antibody, V domains shown)
VH: B1 VH with T14P, Q43K, A44G, D66G, M76T, S84R, S88A, M93V, T115L
VL: B1 VL with A10S, M11L, K24R
notes: The crystal structure was made with an anti-CD47 Fab of this antibody; also called parental CD47 mAb
As to B2, the concentration for half-maximal inhibition (IC50) with human CD47 on cells [2] is 0.00011 µM.

B3: TPP-1361 (bispecific antibody, human IgG1, kappa)
light 1: NIQMTQSPSSLSASVGDRVTITCQASQDIHRYLSWFQQDPGTVPQHLIYRESRFVDGVPSRFSGSGSGTEFTLTISSLQPEDFATYYCLQYDEFPYTFGGGTKVEIKRTVAAPSVFIFPPSDEELKSGTASVVCWLNNFYPREAKVQWKVDNALQSGNSEESVTEQDSKDSTYSLSSTLELSKADYEKHKVYACEVTHQGLSSPVTKSFNRGEC
heavy 1: QMQLVQSGAEVKKPGSSVKVSCKASGFNIKDYYLHWVRQAPGQGLEWMGWIDPDQGDTYYAQKFQGRVTITRDRSTSTAYMELASLTAEDTAVYYCNAAYGESSYPMDYWGQGTLVTVSSASTKGPSVFPLAPSSKSTSGGTAALGCLVKDYFPEPVTVSWNSGALTSGVHTFPAVLKSSGLYSLSSVVTVPSSSLGTQTYICNVNHKPSNTKVDKKVEPKSCDKTHTCPPCPAPELLGGPSVFLFPPKPKDTLMISRTPEVTCVVVDVSHEDPEVKFNWYVDGVEVHNAKTKPREEQYNSTYRVVSVLTVLHQDWLNGKEYKCKVSNKALPAPIEKTISKAKGQPREPQVYVLPPSREEMTKNQVSLLCLVKGFYPSDIAVEWESNGQPENNYLTWPPVLDSDGSFFLYSKLTVDKSRWQQGNVFSCSVMHEALHNHYTQKSLSLSPGK
light 2: QIVLSQSPAILSASPGEKVTMTCRASSSVSYIHWFQQKPGSSPKPWIYATSNLASGVPVRFSGSGSGTSYSLTISRVEAEDAATYYCQQWTSNPPTFGGGTKLEIKRTVAAPSVAIFPPSDERLKSGTASVVCVLNNFYPREAKVQWKVDNALQSGNSQESVTEQDSKDSTYSLSSRLTLSKADYEKHKVYACEVTHQGLSSPVTKSFNRGEC
heavy 2: QVQLQQPGAELVKPGASVKMSCKASGYTFTSYNMHWVKQTPGRGLEWIGAIYPGNGDTSYNQKFKGKATLTADKSSSTAYMQLSSLTSEDSAVYYCARSTYYGGDWYFNVWGAGTTVTVSAASTKGPSVFPLAPSSKSTSGGTAWLGCEVTDYFPEPVTVSWNSGALTSGVHTFPAVLESSGLYSLSSVVTVPSSSLGTQTYICNVNHKPSNTKVDKKVEPKSCDKTHTCPPCPAPELLGGPSVFLFPPKPKDTLMISRTPEVTCVVVDVSHEDPEVKFNWYVDGVEVHNAKTKPREEQYNSTYRVVSVLTVLHQDWLNGKEYKCKVSNKALPAPIEKTISKAKGQPREPQVYVYPPSREEMTKNQVSLTCLVKGFYPSDIAVEWESNGQPENNYKTTPPVLDSDGSFALVSKLTVDKSRWQQGNVFSCSVMHEALHNHYTQKSLSLSPGK
notes: Four-chain IgG1 heterodimer; also called CD47xCD20 bispecific
On to B3, for which the Kd in experiment [3] came out at 2.53 µM. Also, in the experiment with human CD47 on cells [4], the “EC50 of macrophage phagocytosis of OCI-Ly3 cells, OCI-Ly3 Mφ EC50 (µg/mL) REPEAT” value was 0.45 µg/mL and the “EC50 of macrophage phagocytosis of OCI-Ly3 cells, column OCI-Ly3 Mφ EC50” value came out at 0.5 mg/L.

B4: TPP-1367 (bispecific antibody, human IgG1, kappa)
anti-CD47 light chain: B3 light 1 with Q24R, D39K, T42K, Q45K, E51A, S52N, F54L, D56S
anti-CD47 heavy chain: B3 heavy 1 with Q43K, A84R, T87R
anti-CD20 light chain: B3 light 2
anti-CD20 heavy chain: B3 heavy 2
notes: IgG1 1+1 heterodimer; also called CD47/CD20 TPP1367; CD47xCD20 bispecific
On to B4, for which the Kd in experiment [3] was 0.43 µM. For the same molecule, in the experiment with human CD47 on cells [4], the “EC50 of macrophage phagocytosis of OCI-Ly3 cells, OCI-Ly3 Mφ EC50 (µg/mL) REPEAT” value stood at 0.046 µg/mL and the “EC50 of macrophage phagocytosis of OCI-Ly3 cells, column OCI-Ly3 Mφ EC50” value came out at 0.064 mg/L.

What is called Kd is the concentration at which binding is half-saturated. A higher Kd goes with a looser complex. What is called IC50 is the concentration needed to halve the response being measured.
